According to CN112125972A (SINOCELLTECH LTD, dated 2020):

Assays:
Experiment in all cases: indirect ELISA, VLP coated at 2 μg/mL
[1] = molecular target: T1, HPV52 VLP (Human papillomavirus type 52, UniProt Q05138 27-529)
T1 construct: also called HPV52完整VLP蛋白
T1 sequence: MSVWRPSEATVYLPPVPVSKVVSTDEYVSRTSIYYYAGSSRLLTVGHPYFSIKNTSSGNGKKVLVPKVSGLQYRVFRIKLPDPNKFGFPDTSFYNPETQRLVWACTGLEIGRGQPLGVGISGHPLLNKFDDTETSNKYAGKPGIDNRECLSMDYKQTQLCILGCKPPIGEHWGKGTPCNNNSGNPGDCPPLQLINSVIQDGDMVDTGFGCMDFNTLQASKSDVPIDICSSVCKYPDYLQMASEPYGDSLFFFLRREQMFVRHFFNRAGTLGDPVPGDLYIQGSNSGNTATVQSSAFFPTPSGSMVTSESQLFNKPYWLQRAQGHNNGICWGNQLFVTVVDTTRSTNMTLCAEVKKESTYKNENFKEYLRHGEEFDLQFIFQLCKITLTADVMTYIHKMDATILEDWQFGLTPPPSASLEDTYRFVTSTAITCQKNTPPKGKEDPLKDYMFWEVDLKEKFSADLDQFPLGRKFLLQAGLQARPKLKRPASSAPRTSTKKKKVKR

[2] = molecular target: T2, HPV56 VLP (Human papillomavirus type 56, UniProt P36743 36-534)
T2 construct: also called HPV56完整VLP蛋白
T2 sequence: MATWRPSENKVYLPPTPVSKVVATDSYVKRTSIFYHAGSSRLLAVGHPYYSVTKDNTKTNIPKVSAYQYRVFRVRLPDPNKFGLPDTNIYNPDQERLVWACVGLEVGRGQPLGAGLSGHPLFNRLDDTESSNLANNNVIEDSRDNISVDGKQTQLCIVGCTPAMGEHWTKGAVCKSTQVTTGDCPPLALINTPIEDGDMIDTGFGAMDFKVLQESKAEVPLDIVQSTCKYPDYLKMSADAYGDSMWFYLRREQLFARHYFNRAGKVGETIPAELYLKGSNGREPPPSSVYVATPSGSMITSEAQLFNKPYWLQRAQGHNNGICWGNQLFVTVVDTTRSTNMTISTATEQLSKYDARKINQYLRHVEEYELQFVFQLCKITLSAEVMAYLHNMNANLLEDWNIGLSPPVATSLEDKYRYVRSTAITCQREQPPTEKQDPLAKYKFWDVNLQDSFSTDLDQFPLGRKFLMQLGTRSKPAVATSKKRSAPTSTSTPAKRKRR

[3] = molecular target: T3, HPV58 VLP (Human papillomavirus type 58, UniProt P26535 27-524)
T3 construct: also called HPV58完整VLP蛋白
T3 sequence: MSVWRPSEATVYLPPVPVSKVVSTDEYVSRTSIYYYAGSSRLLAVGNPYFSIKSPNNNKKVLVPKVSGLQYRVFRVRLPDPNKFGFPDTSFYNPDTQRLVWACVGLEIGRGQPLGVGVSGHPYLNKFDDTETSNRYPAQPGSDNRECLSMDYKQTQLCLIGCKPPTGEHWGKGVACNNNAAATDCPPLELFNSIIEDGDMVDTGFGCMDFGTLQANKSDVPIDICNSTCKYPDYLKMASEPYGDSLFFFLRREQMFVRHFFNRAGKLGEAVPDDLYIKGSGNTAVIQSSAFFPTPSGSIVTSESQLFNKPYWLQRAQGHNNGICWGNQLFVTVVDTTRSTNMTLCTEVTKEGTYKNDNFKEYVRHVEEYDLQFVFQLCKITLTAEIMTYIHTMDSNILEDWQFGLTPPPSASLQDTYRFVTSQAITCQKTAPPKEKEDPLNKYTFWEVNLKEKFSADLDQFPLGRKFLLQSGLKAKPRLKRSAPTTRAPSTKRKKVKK

[4] = molecular target: T4, HPV6 VLP (Human papillomavirus type 6, UniProt P69899 1-500)
T4 construct: also called HPV6完整VLP蛋白
T4 sequence: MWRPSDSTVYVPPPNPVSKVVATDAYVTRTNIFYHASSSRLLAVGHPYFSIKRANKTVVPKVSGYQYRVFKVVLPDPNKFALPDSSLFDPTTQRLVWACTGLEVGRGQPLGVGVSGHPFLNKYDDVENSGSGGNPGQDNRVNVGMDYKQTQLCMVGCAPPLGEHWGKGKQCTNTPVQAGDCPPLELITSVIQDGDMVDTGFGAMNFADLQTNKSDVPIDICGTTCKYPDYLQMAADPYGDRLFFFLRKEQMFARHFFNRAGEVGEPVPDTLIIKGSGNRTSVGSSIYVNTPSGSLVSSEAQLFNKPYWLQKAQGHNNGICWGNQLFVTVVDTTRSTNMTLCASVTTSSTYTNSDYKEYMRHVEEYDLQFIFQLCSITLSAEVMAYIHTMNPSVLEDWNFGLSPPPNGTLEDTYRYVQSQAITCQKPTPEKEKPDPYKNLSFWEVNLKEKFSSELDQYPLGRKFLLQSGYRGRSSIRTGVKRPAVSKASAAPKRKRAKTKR

Measured: binding result

B1: HPV 16 R001 (antibody, V domains shown)
VH: QSVKESEGRLVTPGTPLTLTCTASGFTMSRYHMTWVRQAPGKGLEWIGIIYARNSDTYYANWAKGRFTISKTSTTVDLKITSPTIEDTATYFCARVDSDSSGAFDRLDLWGQGTLVTVSS
VL: DPMLTQTAASVEVAVGGTVTIKCQASQSIGGYLSWYQQKPGQRPKLLIYRASTLASGVPSRFKGSGSGTEYTLTFSGVECADAAAYYCQQGYTSSDINNAFGGGTEVVVK
notes: An HRP-labelled form served as detection antibody in the sandwich ELISA; also called HPV16.001; 单克隆抗体HPV 16 R001
no binding (tested: 10ng/mL): all assays above
